Test results from the nanobody polyreactivity screen of Harvey et al. (2022).

Experiment: yeast display, Sf9 membrane polyspecificity reagent, FACS + sequencing; frameworks hold sequencing errors
Procedure, shortened: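 A nanobody's polyreactivity label depends on the gate it was sorted from. Yeast display cells were stained with 10% biotinylated, detergent-solubilized Sf9 membrane reagent for 1 hour at 4 °C, enriched on streptavidin microbeads and sorted by FACS. The low and high (top ~1%) gates were set on anti-HA fluorescence for expression and streptavidin fluorescence for reagent binding.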

Row | Sequence | polyreactivity (PSR sort gate)
1 | QVQLVESGGGLVQAGGTLRLSCAASGFNFASYAMGWYRQAPGKERELVDAITSDGSTNYADSVKGRFTISRDNAKNTVYLQMNSLKPEDTAVYYCAADPAKKYDQNTEYEYWGQGTQVTLSS | low polyreactivity
2 | QVQLVESGGGLVQAGGTLRLSCAASGGIFLYYAMGWYRQAPGKERELVATISSGGSTKYADSVKGRFTISRDNAMNTVYLQMNSLKPEDTAVYYCNKVFPNLYIYVVRGLIEMDYWGQGTQVTVSS | low polyreactivity
3 | QVQLVESGGGLVQAGGTLRLSCAASGITFVQYAMGWYRQAPGKETELVASITRRGGSTYYADSVKGRFTISRDNAKNTVYLQMNSLKQEDTAVYYCAARWSAWRGYIFDYWGQGTQVTVSS | high polyreactivity
4 | QVQLVESGGGLVQAGGTLRLSCAASGITFWYYARGWYRPAPGKERELVAVISYSGGIKSYADSVKGRFTISRENAKNTVNLQMNSMKPEDTAVFYCYTLYGRFKAKVYKYGSWGQGTQVTVSS | high polyreactivity
5 | QVQLVESGGGLVQAGGTLRLSCAASGLIFDANAMGWYRQAPGTERELVAAITGSGGRTYYADSVKGRFTISRDIAKHTVYLQMNSLKPEDTAVYYCAASSKRKYLYNYWGQGTQVTVSS | high polyreactivity
6 | QVQLVESGGGLVQAGGTLRLSCAASGPILSRNAMAWYRQAPGKERELVAAISRSGGSTYYADSVKGRFTISRDNAKNTVYFQMNSLKPEDTAVYYSATRYMGRLDYWGQGTQVTVSS | high polyreactivity
7 | QVQLVESGGGLVQAGGTLRLSCAASGRIFSDYAMGWYRQAPGKEREFVAAISSSGGRTYYADSVKGRFTISRDNAKNTVYLQMNSLKPEDTAVYYCNRYNGYYNTGRYGYLGQGTQVTVSS | high polyreactivity
8 | QVQLVESGGGLVQAGGTLRLSCAASGRTFKKYTMGWYRQAPGKERELVAVITSGGSTYYADSVKGRFTISRDNAKNTVYLQMNSLKPEDTAVYYCAVKYPELRTWGYYYWGQGTQVTVSS | high polyreactivity
9 | QVQLVESGGGLVQAGGTLRLSCAASGRTFPSNAMGWYRQAPGKEREFVASITYSGGRTYYADSVKGRFTISRDNAKNTVYLQMNSLKPEDTAVFYCATARYRYHYYSWGQGTQVTVSS | high polyreactivity
10 | QVQLVESGGGLVQAGGTLRLSCAASGRTFRNNAMGWYRQAPGKEWELVAAISLRGGSTYYADSVKGRFTISRDNAKNTVYLLMNSLKPEDTAVYYCATRSRGWIAPPWQGSDGYYYWGQGTQVTVSS | low polyreactivity
11 | QVQLVESGGGLVQAGGTLRLSCAASGRTFTSYTMGWYRQAPGKERELVATISFGGGRTYADSVKGRFTISRDNAKNTVYLQMNSLKTEDTAVYYCNAGYYWRLHWWYYYWGQGTQVTVSS | high polyreactivity
12 | QVQLVESGGGLVQAGGTLRLSCAASGRTFTYYAMGWSRQAPGKEREIVSAISSTGTSTYYADSVKGRFTISRDNAKNTVYLQMNSLKPEDTAVYYCNARVATYRLHSKFYYWGQGTQVTVSS | high polyreactivity
13 | QVQLVESGGGLVQAGGTLRLSCAASGRTLGANALGWYRQAPGKERELVAAITQSGSSTYYADSVKGRFTISRDNAKNTVYLQMNSLKPEDTAVYYCAAEWNVVLAGAVYFRYNYWGQGTQVNVSS | low polyreactivity
14 | QVQLVESGGGLVQAGGTLRLSCAASGRTYYPNTMGWYRQAPGKERELVATITRSGGNTYADSVKGRFTISRDNAKNTVYFQMTSLKPEDTAVYYCAARNGRIAWMNYWGQGTQVTVSS | low polyreactivity
15 | QVQLVESGGGLVQAGGTLRLSCAASGSIFGRNTMGWYRQAPGKERELVAAINSGGGTYYADSVKGRFTISRDNAKNTVYLQMNSLKPEDTAVYYCAKASRAVRHGDYWGQRTQVTVSS | low polyreactivity
16 | QVQLVESGGGLVQAGGTLRLSCAASGSIFIPYAMGWYRQEPGKERELVAAISGSGTSTNYADSVKGRFTISRDNAKITVYFQMISLKPEDTAVYYCAKGYSNFYRSDYWGQGTQVTVSS | high polyreactivity
17 | QVQLVESGGGLVQAGGTLRLSCAASGSIFPDNTMGWYRQAPGKERELVAAIDGRGVTTYYADSVKGRFTISRDNAKNTVYLHMNSLKPEDTAVYYCAAQPWLRYYYWGQGTQVTVSS | low polyreactivity
18 | QVQLVESGGGLVQAGGTLRLSCAASGSILQYNAMGWYRQATVKVSELVAAISRTGGSTYYADSVKGRFTISRDIAMNNLYLQMNSLKPEDTAVYYCNVYLGILYKYDYWGQGNQVTVSS | low polyreactivity
19 | QVQLVESGGGLVQAGGTLRLSCAASGSMFDGNAMGWYRQAPGKERELVAAISRRGGSTYYADSVKGRFTISRDNAKNTVYLQKNSLKPEDTAVYYCNAYLSYFDGNYWGEGTQVTVSS | high polyreactivity
20 | QVQLVESGGGLVQAGGTLRLSCAASGSTFELNVMGWYRQAPGKERELVAAISSGTSTNYADSVKGRFTISRDNAKYTVYLHLKSVKPVDTAVYYCAADPFTIPTSDFYYWGQVTQVTVSS | low polyreactivity
21 | QVQLVESGGGLVQAGGTLRLSCAASGSTFEYYAMGSYRQAPGKEREFVAAISSGPSTTYADSVKGRFTISRDNSKNTVYLQMNSLKPEDTAVYYCARRDGTTQALFGYDYWGQGTQVTVSS | low polyreactivity
22 | QVQLVESGGGLVQAGGTLRLSCAASGSTFFVYAMAWYRQEPGKERELVAAISSRGSTYYADSVKGRFTISRDNAKNTVFLQMISLKPEDSAVYFCAAEYTVSYLRMDYWGQGTQVTVSS | low polyreactivity

Row | Sequence | polyreactivity (PSR sort gate)
23 | QVQLVESGGGLVQAGGTLRLSCAATGITFDAYVMGWYRQAPGKERELVAGIYSGGSTYYADSVKGRFTISRDNAKNTVYLQMNSLKPEDTAVYYWARENYRFADEPPVSRQIPYDYWGQGTQVTVSS | low polyreactivity
24 | QVQLVESGGGLVQAGGTLRLSCAATGSTFPYNAMGWYRQAPGKERELVAAINSAGGTNYADSVKGRFTISRDNAKNTVYLQMNSLKPEDTAVYYCAADGSGYYDWYYYWGQGTQVTVSS | low polyreactivity
25 | QVQLVESGGGLVQAGGTLRLSCSASGRTFYSYAMGWYRQAPGKERELVAAISYTGASTFYADSVKGRFTISRDNAKNTVYLQMNSLIPEDTAVYYCAAESQPSYGETDEYWGQGTQVTVSS | high polyreactivity
26 | QVQLVESGGGLVQAGGTLRLSGDASGSTFPANAMGWYRQAPGKERELVAAISYRGGSTYYADSVKGRFTISRDNAKNTVYLQMNSLKPEDTAVYYCAATPWYRTRTYDYWGQGTQVTVSS | high polyreactivity
27 | QVQLVESGGGLVQAGGTLRLTCAASGFTLTRNAMGWYRQAPGKERELVAAISRSGGSTYYADSVKGRFTISRDNAKNTVYLQMNSLKPEDTAVYYCAADDKYFYPGNGYWGLGTQVTVSS | high polyreactivity
28 | QVQLVESGGGLVQAGGTLSLSCAASGGTFSTNTMGWYRQATGKERELVAAITEGTGNTYYADSVKGRFTISRDNAKNTVYLQMNSLKPEDTAVYYCATAYAVYHVEYGYWGQGTQVTVSS | low polyreactivity
29 | QVQLVESGGGLVQAGRILRISCAASGFKYAMGWYRQEPGKERELVAAISSGGITSYADSVKGRFTISRDNAKNTVYLQMNSLKPEDTAVYYCAAALRRRRAYFDYWGQGTQVTVSS | high polyreactivity
30 | QVQLVESGGGLVQAGRSLPLSCAASGRIIELYGMGWKRPATGKERELVAAMSYGGGSTYYAESVKGRFTISRDNAKNTVYLQMNSLKPEDTAVYYCAARYRTLTKYYWGQGTQVTVSS | low polyreactivity
31 | QVQLVESGGGLVQAGRSLRLICAASGRTFSPNTMGWYRQAPGKEREFVAAINRSGGTTYYADSVKGRFTISRDIAKNTVYLQMNSRKPEDTAVYYCAADSIVPIYRGNDDNYWGQGTQVTVSS | low polyreactivity
32 | QVQLVESGGGLVQAGRSLRLSCAASGFTFGYYAMGWYRQAPGKERELVASISITAGSTYYADSVKGRFTISRDNAKNTVYLQMNSLTPEDTAVYYCAAKRRTRQSYYTEYYWGQGTQVTVSS | high polyreactivity
33 | QVQLVESGGGLVQAGRSLRLSCAASGFTFVWYAMGWYRQAPGTERELVAAISRRGTRTYYADSVKGRFTISRDNAKNTVYLQMNSLKPEDTAVYYCAASNGYQAVTYDYWGQGTQVTVSS | high polyreactivity
34 | QVQLVESGGGLVQAGRSLRLSCAASGIISYRNGMGGYRQAPGKERELVASISKRADSTYYADSVKGRFTISRDNAKNTVYLQLNSLKPEDTAVYYCAARRLITCYGQTHYGYWGQGTQVTVSS | high polyreactivity
35 | QVQLVESGGGLVQAGRSLRLSCAASGITFPVYPMGWYRQAPGKERELVATITSSGGRTYYADSVKGRFTISRDNAKNTVYLQMNSLKPEDSAVYYCAAANGKGQGGYDYWGHGTQVTVSS | high polyreactivity
36 | QVQLVESGGGLVQAGRSLRLSCAASGLIFRYYPMGWYRQAPGKEREFVAAISGRGASTYYADSVKGRFTISRDYAKNSVYLQMNCLKPEDTAVYYCATFFPSAVVAFHMDYWGQGTQVTVSS | low polyreactivity
37 | QVQLVESGGGLVQAGRSLRLSCAASGRIFFGYAMGWYRQAPGKERELVAVISSGCRTYYADSVKGRFTISRDNAKNTVYLQMNSLKAEDTAVYYCAAIIPPTKQRGYYYVGRSEYDYWGQGSQVTVSS | low polyreactivity
38 | QVQLVESGGGLVQAGRSLRLSCAASGRIFQWNAMGWYRQAPGKERELVADITYSGSSTNYADSVKGRFTISRDNAKNSVYLQMNSVKPEVSAVYYCTRDFYQYLSYFWHYVYWGQGTQETVSS | low polyreactivity
39 | QVQLVESGGGLVQAGRSLRLSCAASGRIFRSYAMGWYRQAAGKERELVAAINYSGGNTYYADSVKGRFTISRDNAKNTVYLQLNCVKPDDTAVFYCNARGYYYSSRYGYWGQGTQVTVSS | high polyreactivity
40 | QVQLVESGGGLVQAGRSLRLSCAASGRTFCYYAMGLYRKAPGKERELIAAITNRGGNTYYADSVKGRFTISRDNAKNTVYLQMNSLKPEDTAVYYCAAYNRIYGYHTLYYWGQGTQVTVST | high polyreactivity
41 | QVQLVESGGGLVQAGRSLRLSCAASGRTFGYNPMGWYRQAPGKEREFVAAISYSGTSTYYADSVKGRFTISRDNAKNTVYLQMNSLKPEDTAVYYCNAEALISWRYDYWGQGTQVTVSS | low polyreactivity
42 | QVQLVESGGGLVQAGRSLRLSCAASGRTFPYNAMGWYRQAPGKERELVAAITWSGGSTYYADSVKGRFTISRDNAKNTVYLQMNSLKAEDTAVYYCNKDFPVFEYDYWGQGTQVTVSS | low polyreactivity
43 | QVQLVESGGGLVQAGRSLRLSCAASGRTFPYNAMGWYRQAPGKESELVAAITSGGTTNYADSVKGRFTISRDNAKSTVYLQFNRLKPEDTAVYYCAADSDASSQFRRDYWGQGSQVTVSS | low polyreactivity
